Measured values as given in publication PMC8441365, “SCF^Fbxw5 targets kinesin‐13 proteins to facilitate ciliogenesis” (The EMBO Journal, 2021).

T1: MCAK (purified from Sf21 cells) (human, UniProt Q99661 1-725)
T1 construct: Kif2c/MCAK, human; also called Kif2c; source: Sf21, purified (Ni-NTA, TEV cleavage, Superdex 200)
T1 sequence (looked up): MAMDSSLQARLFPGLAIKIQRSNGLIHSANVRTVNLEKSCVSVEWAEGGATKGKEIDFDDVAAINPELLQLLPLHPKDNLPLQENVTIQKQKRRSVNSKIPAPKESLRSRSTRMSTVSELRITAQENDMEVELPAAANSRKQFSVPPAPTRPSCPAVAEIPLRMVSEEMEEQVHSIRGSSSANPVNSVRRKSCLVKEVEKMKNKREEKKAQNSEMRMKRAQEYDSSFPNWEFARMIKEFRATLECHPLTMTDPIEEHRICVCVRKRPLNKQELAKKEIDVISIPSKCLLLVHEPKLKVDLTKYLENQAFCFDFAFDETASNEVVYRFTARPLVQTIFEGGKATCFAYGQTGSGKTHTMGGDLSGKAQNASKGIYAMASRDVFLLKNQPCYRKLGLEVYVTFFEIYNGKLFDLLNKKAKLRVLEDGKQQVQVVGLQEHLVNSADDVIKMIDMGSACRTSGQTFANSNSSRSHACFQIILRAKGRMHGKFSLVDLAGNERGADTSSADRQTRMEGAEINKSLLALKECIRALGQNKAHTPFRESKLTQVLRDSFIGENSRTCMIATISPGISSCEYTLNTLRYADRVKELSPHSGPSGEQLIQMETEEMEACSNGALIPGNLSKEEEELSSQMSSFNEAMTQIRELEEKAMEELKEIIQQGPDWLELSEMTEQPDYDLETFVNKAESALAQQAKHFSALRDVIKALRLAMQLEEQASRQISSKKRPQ

B1: Fbxw5/Skp1 sub-complex (complex, human)
chain 1: MDEGGTPLLPDSLVYQIFLSLGPADVLAAGLVCRQWQAVSRDEFLWREQFYRYYQVARDVPRHPAAMSWYEEFQRLYDTVPCVEVQTLREHTDQVLHLSFSHSGYQFASCSKDCTVKIWSNDLTISLLHSADMRPYNWSYTQFSQFNKDDSLLLASGVFLGPHNSSSGEIAVISLDSFALLSRVRNKPYDVFGCWLTETSLISGNLHRIGDITSCSVLWLNNAFQDVESENVNVVKRLFKIQNLNASTVRTVMVADCSRFDSPDLLLEAGDPATSPCRIFDLGSDNEEVVAGPAPAHAKEGLRHFLDRVLEGRAQPQLSERMLETKVAELLAQGHTKPPERSATGAKSKYLIFTTGCLTYSPHQIGIKQILPHQMTTAGPVLGEGRGSDAFFDALDHVIDIHGHIIGMGLSPDNRYLYVNSRAWPNGAVVADPMQPPPIAEEIDLLVFDLKTMREVRRALRAHRAYTPNDECFFIFLDVSRDFVASGAEDRHGYIWDRHYNICLARLRHEDVVNSVVFSPQEQELLLTASDDATIKAWRSPRTMRVLQAPRPRPRTFFSWLASQRR
chain 2: MPSIKLQSSDGEIFEVDVEIAKQSVTIKTMLEDLGMDPVPLPNVNAAILKKVIQWCTHHKDDPPDDIPVWDQEFLKVDQGTLFELILAANYLDIKGLLDVTCKTVANMIKGKTPEEIRKTFNIKNDFTEEEEAQVRKENQWCEEK
notes: Fbxw5, human; Skp1, human, with deletion of two loops (aa 38-43 and 71-82), plasmid pFastBac1-Skp1ΔΔ; pFastBac1-Skp1ΔΔ is the Skp1 baculovirus plasmid that the methods describe; source: Sf21, co-infected with both baculoviruses, purified (Ni-NTA, Superdex 200); not shown: His tag (from the Ni-NTA purification and precipitation)

How the values were obtained:
[1] = molecular target: T1, MCAK (purified from Sf21 cells); assay: pull-down; purified proteins from Sf21 cells, 5-fold molar excess of prey over Fbxw5/Skp1 bait, mixed with competing E. coli lysate in PD buffer (20 mM HEPES pH 7.3, 110 mM K-acetate, 300 mM NaCl, 20 mM imidazole, 0.1% NP-40), precipitated via Ni-NTA agarose, SDS-PAGE; conditions: both partners purified
Fbxw5/Skp1 sub-complex = molecular target: B1; assay: as above; conditions: both partners purified

Binder | binding result [1] | binding result (Fbxw5/Skp1 sub-complex)
B1 | binds | 
Kif2a (purified from Sf21 cells) (natural protein, human, UniProt O00139-1 1-679, looked up, source: Sf21, purified (Ni-NTA, TEV cleavage, Superdex 200)) MVTSLNEDNESVTVEWIENGDTKGKEIDLESIFSLNPDLVPDEEIEPSPETPPPPASSAKVNKIVKNRRTVASIKNDPPSRDNRVVGSARARPSQFPEQSSSAQQNGSVSDISPVQAAKKEFGPPSRRKSNCVKEVEKLQEKREKRRLQQQELREKRAQDVDATNPNYEIMCMIRDFRGSLDYRPLTTADPIDEHRICVCVRKRPLNKKETQMKDLDVITIPSKDVVMVHEPKQKVDLTRYLENQTFRFDYAFDDSAPNEMVYRFTARPLVETIFERGMATCFAYGQTGSGKTHTMGGDFSGKNQDCSKGIYALAARDVFLMLKKPNYKKLELQVYATFFEIYSGKVFDLLNRKTKLRVLEDGKQQVQVVGLQEREVKCVEDVLKLIDIGNSCRTSGQTSANAHSSRSHAVFQIILRRKGKLHGKFSLIDLAGNERGADTSSADRQTRLEGAEINKSLLALKECIRALGRNKPHTPFRASKLTQVLRDSFIGENSRTCMIATISPGMASCENTLNTLRYANRVKELTVDPTAAGDVRPIMHHPPNQIDDLETQWGVGSSPQRDDLKLLCEQNEEEVSPQLFTFHEAVSQMVEMEEQVVEDHRAVFQESIRWLEDEKALLEMTEEVDYDVDSYATQLEAILEQKIDILTELRDKVKSFRAALQEEEQASKQINPKRPRAL |  | binds
